Data: US20100068742

T1: Nictide (RLGWWRFYTLRRARQGNTKQR)
T1 chain: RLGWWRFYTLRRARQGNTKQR

T2: chicken maltose binding protein-MYPT (amino acids 714-1004), Q90623
T2 chain: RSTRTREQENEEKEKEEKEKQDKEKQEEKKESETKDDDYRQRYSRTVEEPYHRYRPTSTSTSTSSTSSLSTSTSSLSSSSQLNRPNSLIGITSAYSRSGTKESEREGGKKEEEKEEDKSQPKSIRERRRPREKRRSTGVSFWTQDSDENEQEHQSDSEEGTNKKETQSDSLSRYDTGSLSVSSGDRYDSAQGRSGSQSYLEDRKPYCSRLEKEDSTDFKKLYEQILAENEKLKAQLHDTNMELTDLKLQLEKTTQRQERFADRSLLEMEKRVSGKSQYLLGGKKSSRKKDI

B1: GST-LRRK2 1326-2527 [wild type] (protein)
chain: LKKAVPYNRMKLMIVGNTGSGKTTLLQQLMKTKKSDLGMQSATVGIDVKDWPIQIRDKRKRDLVLNVWDFAGREEFYSTHPHFMTQRALYLAVYDLSKGQAEVDAMKPWLFNIKARASSSPVILVGTHLDVSDEKQRKACMSKITKELLNKRGFPAIRDYHFVNATEESDALAKLRKTIINESLNFKIRDQLVVGQLIPDCYVELEKIILSERKNVPIEFPVIDRKRLLQLVRENQLQLDENELPHAVHFLNESGVLLHFQDPALQLSDLYFVEPKWLCKIMAQILTVKVEGCPKHPKGIISRRDVEKFLSKKRKFPKNYMSQYFKLLEKFQIALPIGEEYLLVPSSLSDHRPVIELPHCENSEIIIRLYEMPYFPMGFWSRLINRLLEISPYMLSGRERALRPNRMYWRQGIYLNWSPEAYCLVGSEVLDNHPESFLKITVPSCRKGCILLGQVVDHIDSLMEEWFPGLLEIDICGEGETLLKKWALYSFNDGEEHQKILLDDLMKKAEEGDLLVNPDQPRLTIPISQIAPDLILADLPRNIMLNNDELEFEQAPEFLLGDGSFGSVYRAAYEGEEVAVKIFNKHTSLRLLRQELVVLCHLHHPSLISLLAAGIRPRMLVMELASKGSLDRLLQQDKASLTRTLQHRIALHVADGLRYLHSAMIIYRDLKPHNVLLFTLYPNAAIIAKIADYGIAQYCCRMGIKTSEGTPGFRAPEVARGNVIYNQQADVYSFGLLLYDILTTGGRIVEGLKFPNEFDELEIQGKLPDPVKEYGCAPWPMVEKLIKQCLKENPQERPTSAQVFDILNSAELVCLTRRILLPKNVIVECMVATHHNSRNASIWLGCGHTDRGQLSFLDLNTEGYTSEEVADSRILCLALVHLPVEKESWIVSGTQSGTLLVINTEDGKKRHTLEKMTDSVTCLYCNSFSKQSKQKNFLLVGTADGKLAIFEDKTVKLKGAAPLKILNIGNVSTPLMCLSESTNSTERNVMWGGCGTKIFSFSNDFTIQKLIETRTSQLFSYAAFSDSNIITVVVDTALYIAKQNSPVVEVWDKKTEKLCGLIDCVHFLREVMVKENKESKHKMSYSGRVKTLCLQKNTALWIGTGGGHILLLDLSTRRLIRVIYNFCNSVRVMMTAQLGSLKNVMLVLGYNRKNTEGTQKQKEIQSCLTVWDINLPHEVQNLEKHIEVRKELAEKMRRTSVE
B2: rat ROCK2 (amino acids 2-543) (protein)
chain: SRPPPTGKMPGAPEAAAGDGAGAGRQRKLEALIRDPRSPINVESLLDGLNSLVLDLDFPALRKNKNIDNFLNRYEKIVKKIRGLQMKAEDYDVVKVIGRGAFGEVQLVRHKASQKVYAMKLLSKFEMIKRSDSAFFWEERDIMAFANSPWVVQLFCAFQDDRYLYMVMEYMPGGDLVNLMSNYDVPEKWAKFYTAEVVLALDAIHSMGLIHRDVKPDNMLLDKHGHLKLADFGTCMKMDETGMVHCDTAVGTPDYISPEVLKSQGGDGYYGRECDWWSVGVFLFEMLVGDTPFYADSLVGTYSKIMDHKNSLCFPEDTEISKHAKNLICAFLTDREVRLGRNGVEEIKSASFFKNDQWNWDNIRETAAPVVPELSSDIDSSNFDDIEDDKGDVETFPIPKAFVGNQLPFIGFTYFRENLLLSDSPPCRENDAIQTRKSEESQEIQKKLYALEEHLSSEVQAKEELEQKCKSINTRLEKTAKELEEEITFRKNVESTLRQLEREKALLQHKNAEYQRKADHEADKKRNLENDVNSLKDQLEDL

What was measured:
[1] = target: GST-ezrin (amino acids 1-586), P15311
GST-ezrin (amino acids 1-586), P15311, sequence (P15311 whole entry, the tested form may be a part): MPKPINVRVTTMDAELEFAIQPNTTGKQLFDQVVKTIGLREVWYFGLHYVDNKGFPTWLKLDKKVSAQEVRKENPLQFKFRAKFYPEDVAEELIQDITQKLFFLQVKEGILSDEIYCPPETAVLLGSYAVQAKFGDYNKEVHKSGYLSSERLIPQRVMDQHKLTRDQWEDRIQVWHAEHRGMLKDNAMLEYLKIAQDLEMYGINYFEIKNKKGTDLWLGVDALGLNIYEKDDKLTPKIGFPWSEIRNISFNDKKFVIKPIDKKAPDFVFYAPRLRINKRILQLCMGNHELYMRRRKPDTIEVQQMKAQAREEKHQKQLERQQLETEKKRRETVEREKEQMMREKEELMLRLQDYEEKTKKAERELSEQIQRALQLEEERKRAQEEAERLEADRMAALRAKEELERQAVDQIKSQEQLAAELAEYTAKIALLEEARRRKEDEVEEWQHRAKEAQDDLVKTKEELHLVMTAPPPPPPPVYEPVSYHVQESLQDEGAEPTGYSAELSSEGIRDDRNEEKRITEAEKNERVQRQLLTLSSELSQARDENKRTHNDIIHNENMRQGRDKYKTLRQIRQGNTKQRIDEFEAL

[2] = target: T1, Nictide (RLGWWRFYTLRRARQGNTKQR)
[3] = target: T2, chicken maltose binding protein-MYPT …
[4] = target: LRRKtide with +1Leu mutated to Ala
[5] = target: LRRKtide with -2Tyr mutated to Arg

Row | Protein | protein substrate phosphorylation (32P autoradiography) [1] | Km of peptide phosphorylation [2] | fold decrease of Vmax against LRRK2[G2019S] [2] | protein substrate phosphorylation (32P autoradiography) [3] | peptide phosphorylation [4] | fold decrease of Km against wild type LRRKtide [5] | fold increase of Vmax against wild type LRRKtide [5]
1 | B1 | LRRK2 phosphorylated ezrin | a similar Km | ~2-fold lower Vmax | did not phosphorylate MYPT | – | – | –
2 | B2 | but barely ezrin | – | – | ROCK2 phosphorylated MYPT | abolished phosphorylation by ROCK2 | decreased the Km value over 60-fold | increased the Vmax over 5-fold
